Assay results: article PMC12102759 (2025)

B1: PEX5 peptide 240-255 (Peroxisomal targeting signal 1 receptor), 16-mer library wild type / PEX14 Pex14 (PEX14 PEX14, residues 16-84) (parent complex)
chain 1: AEQWAAEFIQQQGTSD
chain 2: TPGSENVLPREPLIATAVKFLQNSRVRQSPLATRRAFLKKKGLTDEEIDMAFQQSGTAADEPSSLGPAT
B2: AZIN2 peptide 1-16 (Antizyme inhibitor 2), 16-mer library wild type / NSP3 ADRP (ORF1ab Nsp3b ADRP, residues 1023-1192) (parent complex)
chain 1: MAGYLSESDFVMVEEG
chain 2: not shown
B3: PRDM14 peptide 196-211 (PR domain zinc finger protein 14), 16-mer library wild type / NSP3 SUD-M (ORF1ab Nsp3c SUD-M, residues 1356-1493) (parent complex)
chain 1: QFTEEDLHFVLYGVTP
chain 2: LPSIISNEKQEILGTVSWNLREMLAHAEETRKLMPVCVETKAIVSTIQRKYKGIKIQEGVVDYGARFYFYTSKTTVASLINTLNDLNETLVTMPLGYVTHGLNLEEAARYMRSLKVPATVSVSSPDAVTAYNGYLTSS

Variants of: B1
Experiment: proteomic peptide phage display deep mutational scan (ProP-PD DMS): M13 P8 16-mer library selected against immobilised GST-tagged bait for four days (rounds), NGS of the eluted pools per day and pseudo-replica; bait immobilised on MaxiSorp plates (10 µg), library pre-cleared on GST, 2 h binding at 4 °C, five washes; one round per day, days 1-4; value from days 2 and 3

| Variant | screen value |
| --- | --- |
| chain 1 G13H | 0.00793 average fractional NGS count over selection days 2 and 3 (reads of this peptide / all reads for the bait, averaged over … |
| chain 1 G13A | 0.00173 average fractional NGS count over selection days 2 and 3 (reads of this peptide / all reads for the bait, averaged over … |
| chain 1 G13K | 0.000992 average fractional NGS count over selection days 2 and 3 (reads of this peptide / all reads for the bait, averaged over … |
| chain 1 G13Q | 0.000525 average fractional NGS count over selection days 2 and 3 (reads of this peptide / all reads for the bait, averaged over … |
| chain 1 E2W | 0.000954 average fractional NGS count over selection days 2 and 3 (reads of this peptide / all reads for the bait, averaged over … |
| chain 1 E2T | 0.00227 average fractional NGS count over selection days 2 and 3 (reads of this peptide / all reads for the bait, averaged over … |
| chain 1 E2S | 0.000804 average fractional NGS count over selection days 2 and 3 (reads of this peptide / all reads for the bait, averaged over … |
| chain 1 E2D | 0.00048 average fractional NGS count over selection days 2 and 3 (reads of this peptide / all reads for the bait, averaged over … |
| chain 1 E2N | 0.0028 average fractional NGS count over selection days 2 and 3 (reads of this peptide / all reads for the bait, averaged over … |
| chain 1 E2P | 0.000798 average fractional NGS count over selection days 2 and 3 (reads of this peptide / all reads for the bait, averaged over … |
| chain 1 E2Y | 0.00378 average fractional NGS count over selection days 2 and 3 (reads of this peptide / all reads for the bait, averaged over … |
| chain 1 E2R | 0.00281 average fractional NGS count over selection days 2 and 3 (reads of this peptide / all reads for the bait, averaged over … |
| chain 1 E2G | 0.000866 average fractional NGS count over selection days 2 and 3 (reads of this peptide / all reads for the bait, averaged over … |
| chain 1 Q3T | 0.00148 average fractional NGS count over selection days 2 and 3 (reads of this peptide / all reads for the bait, averaged over … |
| chain 1 Q3H | 0.00576 average fractional NGS count over selection days 2 and 3 (reads of this peptide / all reads for the bait, averaged over … |
| chain 1 Q3M | 0.002 average fractional NGS count over selection days 2 and 3 (reads of this peptide / all reads for the bait, averaged over … |
| chain 1 Q3R | 0.000498 average fractional NGS count over selection days 2 and 3 (reads of this peptide / all reads for the bait, averaged over … |

| Variant | screen value |
| --- | --- |
| chain 1 Q3P | 0.00138 average fractional NGS count over selection days 2 and 3 (reads of this peptide / all reads for the bait, averaged over … |
| chain 1 Q3V | 0.000961 average fractional NGS count over selection days 2 and 3 (reads of this peptide / all reads for the bait, averaged over … |
| chain 1 Q3N | 0.00292 average fractional NGS count over selection days 2 and 3 (reads of this peptide / all reads for the bait, averaged over … |
| chain 1 Q3W | 0.00112 average fractional NGS count over selection days 2 and 3 (reads of this peptide / all reads for the bait, averaged over … |
| chain 1 E7Q | 0.00112 average fractional NGS count over selection days 2 and 3 (reads of this peptide / all reads for the bait, averaged over … |
| chain 1 E7K | 0.000488 average fractional NGS count over selection days 2 and 3 (reads of this peptide / all reads for the bait, averaged over … |
| chain 1 E7L | 0.0199 average fractional NGS count over selection days 2 and 3 (reads of this peptide / all reads for the bait, averaged over … |
| chain 1 E7T | 0.0012 average fractional NGS count over selection days 2 and 3 (reads of this peptide / all reads for the bait, averaged over … |
| chain 1 E7D | 0.00269 average fractional NGS count over selection days 2 and 3 (reads of this peptide / all reads for the bait, averaged over … |
| chain 1 E7V | 0.000633 average fractional NGS count over selection days 2 and 3 (reads of this peptide / all reads for the bait, averaged over … |
| chain 1 E7I | 0.000858 average fractional NGS count over selection days 2 and 3 (reads of this peptide / all reads for the bait, averaged over … |
| chain 1 Q11A | 0.00173 average fractional NGS count over selection days 2 and 3 (reads of this peptide / all reads for the bait, averaged over … |
| chain 1 Q11H | 0.00664 average fractional NGS count over selection days 2 and 3 (reads of this peptide / all reads for the bait, averaged over … |
| chain 1 Q11I | 0.00199 average fractional NGS count over selection days 2 and 3 (reads of this peptide / all reads for the bait, averaged over … |
| chain 1 Q11K | 0.000704 average fractional NGS count over selection days 2 and 3 (reads of this peptide / all reads for the bait, averaged over … |
| chain 1 Q11L | 0.0026 average fractional NGS count over selection days 2 and 3 (reads of this peptide / all reads for the bait, averaged over … |

Variants of: B2
Experiment: bait immobilised on MaxiSorp plates (10 µg), library pre-cleared on GST, 2 h binding at 4 °C, five washes; one round per day, days 1-4; value from days 2 and 3

| Variant | screen value |
| --- | --- |
| chain 1 G3A | 0.000627 average fractional NGS count over selection days 2 and 3 (reads of this peptide / all reads for the bait, averaged over … |
| chain 1 S8Y | 0.035 average fractional NGS count over selection days 2 and 3 (reads of this peptide / all reads for the bait, averaged over … |
| chain 1 S8L | 0.000166 average fractional NGS count over selection days 2 and 3 (reads of this peptide / all reads for the bait, averaged over … |
| chain 1 V13Q | 0.000748 average fractional NGS count over selection days 2 and 3 (reads of this peptide / all reads for the bait, averaged over … |
| chain 1 G16T | 0.000528 average fractional NGS count over selection days 2 and 3 (reads of this peptide / all reads for the bait, averaged over … |
| chain 1 G16K | 0.000188 average fractional NGS count over selection days 2 and 3 (reads of this peptide / all reads for the bait, averaged over … |
| chain 1 M12R | 0.000896 average fractional NGS count over selection days 2 and 3 (reads of this peptide / all reads for the bait, averaged over … |
| chain 1 M12L | 0.0611 average fractional NGS count over selection days 2 and 3 (reads of this peptide / all reads for the bait, averaged over … |
| chain 1 M12E | 0.000138 average fractional NGS count over selection days 2 and 3 (reads of this peptide / all reads for the bait, averaged over … |
| chain 1 D9E | 0.000316 average fractional NGS count over selection days 2 and 3 (reads of this peptide / all reads for the bait, averaged over … |

Variants of: B3
Experiment: as above

| Variant | screen value |
| --- | --- |
| chain 1 V14L | 4.25e-05 average fractional NGS count over selection days 2 and 3 (reads of this peptide / all reads for the bait, averaged over … |
| chain 1 V14I | 7.71e-05 average fractional NGS count over selection days 2 and 3 (reads of this peptide / all reads for the bait, averaged over … |
| chain 1 E4Q | 4.52e-05 average fractional NGS count over selection days 2 and 3 (reads of this peptide / all reads for the bait, averaged over … |
| chain 1 H8T | 0.000106 average fractional NGS count over selection days 2 and 3 (reads of this peptide / all reads for the bait, averaged over … |
| chain 1 H8L | 0.000127 average fractional NGS count over selection days 2 and 3 (reads of this peptide / all reads for the bait, averaged over … |
| chain 1 H8V | 0.000167 average fractional NGS count over selection days 2 and 3 (reads of this peptide / all reads for the bait, averaged over … |
| chain 1 H8I | 8.91e-05 average fractional NGS count over selection days 2 and 3 (reads of this peptide / all reads for the bait, averaged over … |
| chain 1 H8M | 0.194 average fractional NGS count over selection days 2 and 3 (reads of this peptide / all reads for the bait, averaged over … |
| chain 1 H8R | 0.0209 average fractional NGS count over selection days 2 and 3 (reads of this peptide / all reads for the bait, averaged over … |
| chain 1 H8N | 0.00229 average fractional NGS count over selection days 2 and 3 (reads of this peptide / all reads for the bait, averaged over … |
| chain 1 H8Y | 5.98e-05 average fractional NGS count over selection days 2 and 3 (reads of this peptide / all reads for the bait, averaged over … |
| chain 1 H8A | 0.00113 average fractional NGS count over selection days 2 and 3 (reads of this peptide / all reads for the bait, averaged over … |
| chain 1 H8K | 0.000229 average fractional NGS count over selection days 2 and 3 (reads of this peptide / all reads for the bait, averaged over … |
| chain 1 H8E | 4.27e-05 average fractional NGS count over selection days 2 and 3 (reads of this peptide / all reads for the bait, averaged over … |
| chain 1 Y12E | 0.000104 average fractional NGS count over selection days 2 and 3 (reads of this peptide / all reads for the bait, averaged over … |
| chain 1 Y12M | 4.44e-05 average fractional NGS count over selection days 2 and 3 (reads of this peptide / all reads for the bait, averaged over … |

| Variant | screen value |
| --- | --- |
| chain 1 L7R | 7.05e-05 average fractional NGS count over selection days 2 and 3 (reads of this peptide / all reads for the bait, averaged over … |
| chain 1 D6G | 5.78e-05 average fractional NGS count over selection days 2 and 3 (reads of this peptide / all reads for the bait, averaged over … |
| chain 1 D6A | 6.63e-05 average fractional NGS count over selection days 2 and 3 (reads of this peptide / all reads for the bait, averaged over … |
| chain 1 D6E | 0.0721 average fractional NGS count over selection days 2 and 3 (reads of this peptide / all reads for the bait, averaged over … |
| chain 1 D6V | 5.37e-05 average fractional NGS count over selection days 2 and 3 (reads of this peptide / all reads for the bait, averaged over … |
| chain 1 T3S | 0.000238 average fractional NGS count over selection days 2 and 3 (reads of this peptide / all reads for the bait, averaged over … |
| chain 1 P16Y | 0.000111 average fractional NGS count over selection days 2 and 3 (reads of this peptide / all reads for the bait, averaged over … |
| chain 1 P16F | 0.000936 average fractional NGS count over selection days 2 and 3 (reads of this peptide / all reads for the bait, averaged over … |
| chain 1 P16V | 0.000126 average fractional NGS count over selection days 2 and 3 (reads of this peptide / all reads for the bait, averaged over … |
| chain 1 P16H | 0.000235 average fractional NGS count over selection days 2 and 3 (reads of this peptide / all reads for the bait, averaged over … |
| chain 1 P16S | 0.145 average fractional NGS count over selection days 2 and 3 (reads of this peptide / all reads for the bait, averaged over … |
| chain 1 P16E | 9.32e-05 average fractional NGS count over selection days 2 and 3 (reads of this peptide / all reads for the bait, averaged over … |
| chain 1 P16D | 0.004 average fractional NGS count over selection days 2 and 3 (reads of this peptide / all reads for the bait, averaged over … |
| chain 1 P16R | 6.57e-05 average fractional NGS count over selection days 2 and 3 (reads of this peptide / all reads for the bait, averaged over … |
| chain 1 P16L | 0.00707 average fractional NGS count over selection days 2 and 3 (reads of this peptide / all reads for the bait, averaged over … |
| chain 1 P16K | 9.04e-05 average fractional NGS count over selection days 2 and 3 (reads of this peptide / all reads for the bait, averaged over … |
